Measured values published in patent US11278600B2, “Human alpha-galactosidase variants” (Codexis, Inc., priority 2014, dated 2022).
Positions count from the first letter of the chain named.

B1: 505 (protein)
chain: LDNGLARTPTMGWLHWERFMCNLDCQEEPDSCISEKLFMEMAERMVSEGWKDAGYEYLCIDDCWMAPQRDSEGRLQADPQRFPHGIRQLANYVHSKGLKLGIYADVGNKTCAGFPGSFGYYDIDAQTFADWGVDLLKFDGCYCDSLENLADGYKHMSLALNRTGRSIVYSCEWPLYMWPFQKPNYTEIRQYCNHWRNFADIDDSWKSIKSILDWTSFNQERIVDVAGPGGWNDPDMLVIGNFGLSWNQQVTQMALWAIMAAPLFMSNDLRHISPQAKALLQDKDVIAINQDPLGKQGYQLRQGDNFEVWERPLSGLAWAVAMINRQEIGGPRSYTIAVASLGKGVACNPACFITQLLPVKRKLGFYEWTSRLRSHINPTGTVLLQLENTMQNSLKDLL
modifications: Synthetic Polypeptide sequence of Variant No. 505 of mature Human GLA
B2: 510 (protein)
chain: B1 chain with A199G, N392R
modifications: Synthetic Polypeptide sequence of Variant No. 510 of mature Human GLA
B3: 508 (protein)
chain: B1 chain with L384A, N392M
modifications: Synthetic Polypeptide sequence of Variant No. 508 of mature Human GLA
B4: 506 (protein)
chain: B1 chain with Q385W, N392M
modifications: Synthetic Polypeptide sequence of Variant No. 506 of mature Human GLA
B5: 509 (protein)
chain: B1 chain with Q385T, N392M
modifications: Synthetic Polypeptide sequence of Variant No. 509 of mature Human GLA
B6: 507 (protein)
chain: B1 chain with N392T
modifications: Synthetic Polypeptide sequence of Variant No. 507 of mature Human GLA
B7: 372 (protein)
chain: LDNGLARTPTMGWLHWERFMCNLDCQEEPDSCISEKLFMEMAEVMVSEGWKDAGYEYLCIDDCWMAPQRDSEGRLQADPQRFPHGIRQLANYVHSKGLKLGIYADVGNKTCAGFPGSFGYYDIDAQTFADWGVDLLKFDGCYCDSLENLADGYKHMSLALNRTGRSIVYSCEWPLYMWPFQKPNYTEIRQYCNHWRNFADIDDSWKSIKSILDWTSRNQERIVDVAGPGGWNDPDMLVIGNFGLSWDQQVTQMALWAIMAAPLFMSNDLRHISPQAKALLQDKDVIAINQDPLGKQGYQLRKGDNFEVWERPLSGDAWAVAIINRQEIGGPRSYTIPVASLGKGVACNPACFITQLLPVKRQLGFYNWTSRLKSHINPTGTVLLQLENTMQMSLKDLL
modifications: Synthetic Polypeptide sequence of Variant No. 372 of mature Human GLA
B8: 373 (protein)
chain: B7 chain with M41R, V44R
modifications: Synthetic Polypeptide sequence of Variant No. 373 of mature Human GLA
B9: 374 (protein)
chain: B7 chain with V44M
modifications: Synthetic Polypeptide sequence of Variant No. 374 of mature Human GLA

Assay: HTP-analysis of yeast culture supernatants, no challenge (MUGal hydrolysis)
Format: biochemical
Conditions: activity of the variant/activity of Rd4BB (SEQ ID NO: 15)
Outline: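 GLA variants were expressed in INVSc1 yeast grown in SD-Ura broth with glucose at 30° C., and culture supernatants were collected after 66-84 h. Supernatant was mixed with McIlvaine buffer pH 4.8 and MUGal (2 mM stock) in 50 mM citrate, 200 mM KCl, pH 4.6, incubated at 37° C. for 30-180 minutes, then quenched with sodium carbonate.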

Q: Which “Relative Activity of GLA Variants After No Challenge (NC)” value does the source give for B1 here?
A: The value was “+ (0.5 to 1.5 relative activity over Rd4BB (SEQ ID NO: 15))”.

Q: With B2 as the molecule, how does the “Relative Activity of GLA Variants After No Challenge (NC)” value read?
A: The value was “+ (0.5 to 1.5 relative activity over Rd4BB (SEQ ID NO: 15))”.

Q: For B3, which “Relative Activity of GLA Variants After No Challenge (NC)” value is on record?
A: Its value is “− (<0.5 relative activity over Rd4BB (SEQ ID NO: 15))”.

Q: With B4 as the molecule, how does the “Relative Activity of GLA Variants After No Challenge (NC)” value read?
A: The value was “+ (0.5 to 1.5 relative activity over Rd4BB (SEQ ID NO: 15))”.

Q: For B5, which “Relative Activity of GLA Variants After No Challenge (NC)” value is on record?
A: The value was “+ (0.5 to 1.5 relative activity over Rd4BB (SEQ ID NO: 15))”.

Q: With B6 as the molecule, how does the “Relative Activity of GLA Variants After No Challenge (NC)” value read?
A: Its value is “+ (0.5 to 1.5 relative activity over Rd4BB (SEQ ID NO: 15))”.

Q: With B7 as the molecule, how does the “Relative Activity of GLA Variants After No Challenge (NC)” value read?
A: Its value is “+ (0.5 to 1.5 relative activity over Rd4BB (SEQ ID NO: 15))”.

Q: Which “Relative Activity of GLA Variants After No Challenge (NC)” value does the source give for B8 here?
A: Its value is “− (<0.5 relative activity over Rd4BB (SEQ ID NO: 15))”.

Q: Which “Relative Activity of GLA Variants After No Challenge (NC)” value does the source give for B9 here?
A: Its value is “+ (0.5 to 1.5 relative activity over Rd4BB (SEQ ID NO: 15))”.

Assay: HTP-analysis of supernatants pretreated with base (MUGal hydrolysis)
Format: biochemical
Conditions: activity of the variant/activity of Rd4BB (SEQ ID NO: 15); challenge at pH 9.65
Outline: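 Supernatants from INVSc1 yeast expressing GLA variants (SD-Ura, 66-84 h, 30° C) were mixed with McIlvaine buffer pH 7.0-8.2 or 200 mM sodium bicarbonate pH 9.1-9.7 and held 1-18 h at 37° C. Residual activity was then measured on MUGal at pH 4.8/4.3, 37° C, 30-180 min, by fluorescence (Ex 355/Em 448 nm).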

Q: Which “Relative Activity of GLA Variants After Challenge at pH 9.65” value (from here on “Relative Activity … at pH 9.65”) does the source give for B1 here?
A: The value was “+ (0.5 to 1.5 relative activity over Rd4BB (SEQ ID NO: 15))”.

Q: Which “Relative Activity … at pH 9.65” value does the source give for B2 here?
A: The value was “+ (0.5 to 1.5 relative activity over Rd4BB (SEQ ID NO: 15))”.

Q: For B3, which “Relative Activity … at pH 9.65” value is on record?
A: The value was “− (<0.5 relative activity over Rd4BB (SEQ ID NO: 15))”.

Q: With B4 as the molecule, how does the “Relative Activity … at pH 9.65” value read?
A: The value was “− (<0.5 relative activity over Rd4BB (SEQ ID NO: 15))”.

Q: With B5 as the molecule, how does the “Relative Activity … at pH 9.65” value read?
A: Its value is “+ (0.5 to 1.5 relative activity over Rd4BB (SEQ ID NO: 15))”.

Q: Which “Relative Activity … at pH 9.65” value does the source give for B6 here?
A: The value was “+ (0.5 to 1.5 relative activity over Rd4BB (SEQ ID NO: 15))”.

Q: Which “Relative Activity … at pH 9.65” value does the source give for B7 here?
A: Its value is “+ (0.5 to 1.5 relative activity over Rd4BB (SEQ ID NO: 15))”.

Q: Which “Relative Activity … at pH 9.65” value does the source give for B8 here?
A: The value was “− (<0.5 relative activity over Rd4BB (SEQ ID NO: 15))”.

Q: Which “Relative Activity … at pH 9.65” value does the source give for B9 here?
A: The value was “+ (0.5 to 1.5 relative activity over Rd4BB (SEQ ID NO: 15))”.

Assay: HTP-analysis of supernatants pretreated with acid (MUGal hydrolysis)
Format: biochemical
Conditions: activity of the variant/activity of Rd4BB (SEQ ID NO: 15); challenge at pH 3.7
Outline: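 Yeast INVSc1 supernatant, GLA variants; acid challenge: McIlvaine pH 3.3-4.3, 37° C., 1-3 h. Assay: MUGal in McIlvaine pH 4.8 plus citrate pH 4.3, 37° C., 30-180 min, Na2CO3 stop, Ex 355/Em 448 nm.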

Q: With B1 as the molecule, how does the “Relative Activity of GLA Variants After Challenge at pH 3.7” value (“Relative Activity … at pH 3.7” for short) read?
A: The value was “+ (0.5 to 1.5 relative activity over Rd4BB (SEQ ID NO: 15))”.

Q: With B2 as the molecule, how does the “Relative Activity … at pH 3.7” value read?
A: The value was “− (<0.5 relative activity over Rd4BB (SEQ ID NO: 15))”.

Q: With B3 as the molecule, how does the “Relative Activity … at pH 3.7” value read?
A: The value was “− (<0.5 relative activity over Rd4BB (SEQ ID NO: 15))”.

Q: Which “Relative Activity … at pH 3.7” value does the source give for B4 here?
A: The value was “+ (0.5 to 1.5 relative activity over Rd4BB (SEQ ID NO: 15))”.

Q: Which “Relative Activity … at pH 3.7” value does the source give for B5 here?
A: The value was “+ (0.5 to 1.5 relative activity over Rd4BB (SEQ ID NO: 15))”.

Q: For B6, which “Relative Activity … at pH 3.7” value is on record?
A: The value was “++ (>1.5 to 2.5 relative activity over Rd4BB (SEQ ID NO: 15))”.

Q: For B7, which “Relative Activity … at pH 3.7” value is on record?
A: Its value is “− (<0.5 relative activity over Rd4BB (SEQ ID NO: 15))”.

Q: Which “Relative Activity … at pH 3.7” value does the source give for B8 here?
A: The value was “− (<0.5 relative activity over Rd4BB (SEQ ID NO: 15))”.

Q: Which “Relative Activity … at pH 3.7” value does the source give for B9 here?
A: The value was “+ (0.5 to 1.5 relative activity over Rd4BB (SEQ ID NO: 15))”.
